The values below come from the nanobody polyreactivity screen of Harvey et al. (2022).

This series can be described thus: yeast display, Sf9 membrane polyspecificity reagent, FACS + sequencing; frameworks hold sequencing errors. The method in brief:
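Galactose induction of a Saccharomyces cerevisiae BJ5465 synthetic nanobody display library ran 36–48 hours. The cells were then stained for 1 hour at 4 °C with 10% biotinylated, detergent-solubilized Sf9 membrane reagent, pulled down on streptavidin microbeads and FACS-sorted into low and high (top ~1%) gates on expression and reagent-binding fluorescence. Labels for polyreactivity follow the gate of origin.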
“QVQHVESGGGLVQAGGSHRLSSAASGSTFRGYVMGWYRQAPGKERELVAVITTSDGDTYYADSVKGRFTNSRDNAKNTVYLQMNSLKPEDTAVYYCNADLYSYYGDNYWGQGTQVTVSS”: the “polyreactivity (PSR sort gate)” value is “low polyreactivity”.
As to “QVQLVESGGGLVQEGGSLRLICEASGFIFYNYAMGWYRQAPGKERELVAAISSSGGRTYYADSVKGRFTISRDNAKNTVYLQMNRLKREDTAVYYCNARVNYKGYDYWGQGTQVTVSS”, the “polyreactivity (PSR sort gate)” value was “high polyreactivity”.
With “QVQLVESGGGLVQAGGSLRLSCAASGSTFPPNAMGRYRQAPGKERELVAAISFSSGRTYYADSVKGRFTFSRDNAKNTVYLQMNSLKPEDTAVYYCAADHGYLGQGTQVTVSS”, the “polyreactivity (PSR sort gate)” value was “low polyreactivity”.
For the sequence “QVQLVESGGGLVQAGGSLRLSCAASGSIFDSYAMGWYRQAPGKERELVAGIRWDSGSTYYADSVKGRFTISRDNAKNTVYLQINSLKPEDTAVYYCAADLFDFLLIDGFAVVTYGYWGQGTQVTVSS”, the “polyreactivity (PSR sort gate)” value is given as “low polyreactivity”.
In the case of “QVQLLESAGGLVQAGGSLRLSCAASGFIYIPYAMGWYRQAPGKERELVAAISTRGGGTYYADSVKGRFTISRDNAKKPVYLQMNSVKPEDTAVYYCNKQAFYNGRVGYDYWGQGTQVTVSS”, the “polyreactivity (PSR sort gate)” value was “low polyreactivity”.
On to “QVQLVESGGGLVQAGGSLRLSCAASGFTFQYYAMGWYRQAPGKERELVAAINWSGGRTYYADSVKGRFTISRDNAKNTVYLQMNSLKPEDTAVYYCAATRSFSGGYGYVSYDYWGQGTHVTVSS”, for which the “polyreactivity (PSR sort gate)” value is given as “high polyreactivity”.
As for “QVQLVESGGGLVQAGGSLRLSCAASGKIFFRYTLGWYRQAPGKERELVAAISASGGSTYYADSVKGRFTISRDNAKNTVYLQMNSLKPEDTSVYYCAARILHYTSEYYYWGQGTQVTVSS”, the entry is “low polyreactivity”.
Consider “QVQLVESGGGLVQAGGSLRLSCAASGLPFRDYAMGWYRQAPGTERELVAAISDGDDSTSYADSVKGRFTSSRDNAKTTGYLQMNSQNPEDTAVYDCAPYLSDPDFLAGIYGLYNYWGQGTQVTVSS”, for which the “polyreactivity (PSR sort gate)” value is given as “low polyreactivity”.
For “QVQLVETGGGLVQAGGSLRLSCAASGSTFGGYAMGWYRQAPGKERELVATITGGGSTNYADSVKGRFTISRDNAKNTVYLQMNSLKPEDSAVYYCAKVRTGQSRSVGYDYWGQGTQVTVSS”, the “polyreactivity (PSR sort gate)” value is “low polyreactivity”.
For “QVQLVESGGGLVQAGGSLRLSCAASGRTLPYYMGWYRQAPGKERELVAAITNGDSTYYADSVKGRFTISRDNAKNTVYLQMNSLKPEDTAVYYCNVVTYVKYGYWGQGTQVTVSS”, the “polyreactivity (PSR sort gate)” value was “high polyreactivity”.
Turning to “QVQLVESGGGLVQAGGSLRLSCAASGRTLRYYAMGRYIQAPGKERELVAIITSTGSTYYADSVKGRFTISRDNAKNTVYLQMNSLKPEDTAVYYCNRVISVSLDYLGENYWGQGTQVTVSS”, the “polyreactivity (PSR sort gate)” value is “high polyreactivity”.
For “QVQLVESGGGLVQAGGSLRLSCAASGSTFKRNAMGWYRQAPGKERELVAAITYSGTRTYYADSVKGRFTISRDNAKNTVYLQMNSLKPEDTAVYYCAVSVPYGMDYWGQGTQVTVSS”, the “polyreactivity (PSR sort gate)” value is recorded as “high polyreactivity”.
Turning to “QVQLVESGGGLVQAGGSLRLSCAASGFIFKGYAMGWYRQAPGKERELVATINWSGGRTYYADSVKGRFTISRDNAKNTVYLQMNSLKPEDTAVYYCNVQVGTYAWWYRVGSWYDYWGQGTQVTVSS”, the “polyreactivity (PSR sort gate)” value is “high polyreactivity”.
With “QVQLVESGGGLVQAGGSLRLSCAASGRIFWAYAMGWYRQAPGKERELVAVITIGGRTNYADSVKGRFTISRDNAKNTVYLQMNSLKPEDTAVYYCAAERHIITWPYSRYYYWGQGTQVTVSS”, the “polyreactivity (PSR sort gate)” value was “high polyreactivity”.
As for “QVQLVESGGGLVQAGGSLRLSCAASGRTFVYYAMGWYRQAPGKERELVAAIRRDTRTYYADSVKGRFTISRDNAKNTVYLQMNSQTPEDTAVYYCAADDPWHYDFDYWGQGTQVTVSS”, the “polyreactivity (PSR sort gate)” value was “low polyreactivity”.
“QVQLVESGGGLVQAGGSLRLSCAASGRIFRRYAMGCYIQAPGKERELVAGITGSGTSTYYADSVKGRFTISRDNAKNTVYLQMNSLKPEDTAVYYCAADRGRGYRYNYWGQGTQVTVSS”: the “polyreactivity (PSR sort gate)” value is reported as “high polyreactivity”.
On to “QVQLVESGGGLVQAGGSLRLSCAASGSIFRGYTMGWYRQATGKERELVAAITSGDSTNYADSVKGRFTISRDNAKNTVYLQMNSLKPEDTAVYYCAAGRLYLPYLVYLTYSFVGYYYWGQGTQVTVSS”, for which the “polyreactivity (PSR sort gate)” value is on record as “high polyreactivity”.
As for “QVQLVESGGGLVQAGGSLRLSCAASGNTFKYYAMGWYRQAPGKERELVAAITWNGARTYYADSVKGRFTISRDNAKNTVYLQMNSLKPEDTAVYYCNARQGYRFDYWGQGTQVTVSS”, the entry is “high polyreactivity”; as for “QHHLVESGGGLVQAGGSLRLSCAASGRPLQGYAMGWYRQAPGKHRELVAAITWSGGSTYYADSVKGRFTISRDKAKNTVYLQMNSLKPEDTAVYYCATDDDSARFDYWGQGTQVTVSS”, “low polyreactivity”; as for “QVQLVESGGGLVQAGGSLRLSCAASGITFFRNAMGWYRQAPGKERELVAVITYSGGRTSYADSVKGRFTISRDNAKNTVYLQMNSLKPEDTAVYYCATEKWQSSPGYTYYFVEYDYWGQGTQVTVSS”, “low polyreactivity”.
For “QVQLVETGGGLVQAGGSLRLSCAASGTFHWYAMGWYRPAPGKERELVAAITGSGGNTYYADSVKGRFTISRDNAKNTVYLQMNSLKPEDTAVYYCAARIYTWSVQYTGYGYWGQGTQVTVSS”, the “polyreactivity (PSR sort gate)” value is recorded as “high polyreactivity”.
Take “QVQLVESGGGLVQAGGSLRLSCAASGSIFLLYAMGWYRQAPGKERELVAAISTRDGSTYYADSVKGRFTLSRDNAKNTVYLQMNSLKPEDTAVYYCATLYSYNYWGQGTQVTVSS”: the “polyreactivity (PSR sort gate)” value is “high polyreactivity”.
As for “QVQLVESGGGLVQAGGSLRLSCAASGSTFTGNAMGWYRPAPGKERELVADITWSDGSTDYADSVKGRFTISRDNAKNTVYLQMNSLKPDDTAVYYCNARITYYVGTAWYDYWGQGTQVTVSS”, the entry is “low polyreactivity”.
In the case of “QFQHVESGGGLVQAGGSLRLSCAASGRTFGPYAMGCYIQAPGKERELVAAISSGGRTYYADSVKGRFTISRDNAKNTVYFQMNSLKPEDTAVYYCAATYGPSRYRYDYWGQGTQVTVSS”, the “polyreactivity (PSR sort gate)” value is “high polyreactivity”.
With “QVQLVESGGGLFQAGGSLRLSCAASGFSFYGNTMGWYRQAPGKERELFASITSGSSTHYADSVKGRFTISRDNAKNTVYLQMNSLKPDDTAVYYCNVEDIQFGKYDYWGQGTQVTVSS”, the “polyreactivity (PSR sort gate)” value is “low polyreactivity”.
As for “QVQLVDSGGGLVQAGGSLRLSCPASGGIFGEYAMGWYRPAPGKEMELVAAINWSGGSTYYADSVKGRFTISRDNAKNTVYLQMNSLKPEDTAVYYCAADRGYPGNVDYWGQGSQVTVSS”, the entry is “low polyreactivity”.
Turning to “QVQLVESGGGLVQAGGSLRLSCAASGFIFIPYAKGWYRQAPGKERELVAAISVSDGTTYYADSVKGRFTISRDNAKNTVYFQMNSLKPEDTAVDYCAARRRAQQGTRDHDYWGQGTQVTVSS”, the “polyreactivity (PSR sort gate)” value is reported as “high polyreactivity”.
For the sequence “QVQLVESGGGLVQAGGSLRLSCAASGIIFRYYAMGWYRQAPGKERELVAAISGTGSTKYADSVKGRFTISRDNAKNTVYLQMNSLKPEDTAVYYCNPRKRYARYGGSGYDYWGQGTQVTVSS”, the “polyreactivity (PSR sort gate)” value was “high polyreactivity”.
On to “QVQLVESVVGLVQAGGSLRLSCAASGSIFIENTMGWYRQAPGKERELVAAISGSVGRTFYADSVKGRFTISRDNAKNTVYLQMNSLKPEDTAVYYCAAVRRTSPGWVYYWGQGTRVTVSS”, for which the “polyreactivity (PSR sort gate)” value is “high polyreactivity”.
With “QVQLVESGGGLVQAGGSLRLSCAASGRNIQGYAMGWYRQAPGKESELVAAITLSGGSTYYADSVKGRFTISRDNAKNTVYLQMNSLKPEVTAVYYCNAYYPDEPSLYDYWGQGTQVTVSS” the entry was “low polyreactivity”; with “QVQLVESGGGLVQAGGSLRLSCAASGSIFYHYVMGWYRQAPGKERELVAAISSSGRTYYADSVKGRFTISRDNAKNTVYLQMNSLKPEDTAVYYCAADVHFGVGMDYWGQGTQVTVSS”, “low polyreactivity”; with “QVQLVESGGGLVQAGGSLRLSCAASGRTFGRYAMGWYRQAPGKERELVATISSRGGNTYYADSVKGRFTISRDNAKNTVFLQMNSLKPEDTAVYYCAADVYSSDYDYWGQGTQVNVSS”, “high polyreactivity”.
As to “QVQLVESGGGLVQAGGSLRLSCAASGFTSPTAMGWYRQAPGKVRELVADISVGDGSTYYADSVKGRFTISRDNAKNTVYLQMNSLKREDTAVYYCAAEYWLYWYQDGFGFDYWGQGTQVTVSS”, the “polyreactivity (PSR sort gate)” value is reported as “high polyreactivity”.
Consider “QVHLVETGGALVQAGGSLSISCAASGSIYHGYTMGWYRQAPGKERELVAAINSGDGSTYADSVKGRFTISRDNAKNTVYLQMNSLKQEDTAVYYCAALYAVYWPWYVREYDYWGHGTQVTVSS”, for which the “polyreactivity (PSR sort gate)” value was “low polyreactivity”.
Consider “QFQLVESGGGLVQAGGSLRLSCAASGFIFYKYAMGGYRQAPGKERELVAAISSGGSPYYADSVKGRFTISRDNAKNTVYLQMNSLKPEDTAVYYCNKVYRSYRSGFYGGDYWGQGTQVTVSS”, for which the “polyreactivity (PSR sort gate)” value is “high polyreactivity”.
On to “QVQLVESGGGLVQAGGSLRLSCAASGRTFFPNEMGWYRQAPGKERELVAAITSAGSTNYADSVKGRFTISRDNEKTTVYLQMNSLKPEETAVYYCAAVYPPIHQRYIVDYWGQGTQETVSS”, for which the “polyreactivity (PSR sort gate)” value is “low polyreactivity”.
As for “QVQLVESGGGLVQAGGSLRLSCAASGFTFNCNAMGWYRQAPGKERELVAAIRSSGGSTYYADSVKGRFTISRDNAKYTVYLQMNSLKPEDTAVYYCAARRSNLYYGGTRYWYYYWGQGTQVTVSS”, the entry is “high polyreactivity”; as for “QVQLVESGGGLVQAGGSLSLSCAASGSTFYRYAKGWYRQAPGKERELVAAISTRGGSTYYADSVKGRFTISRDNAKNTVYLQMNSLKPEDTAVYYCAAKSGSPDDYDYWGHGTQVTVSS”, “high polyreactivity”.
With “QVQLVESGGGLVQAGGSLRLSCAASGRTLRYYAMGWYRQAPGKERELVAAITKSGGSTYYADSVKGRFTISRDNAKNTVYLQMNSLKPEDTAVYYCNKVTYSRAQYIGGDGYYWGLGTQVTVSS” the entry was “high polyreactivity”; with “QDQLVESGGGLVQAGGSLRLSCAASGFTFYSYAMGWYRQAPGKEREFVATITSSGGSTYYADSVKGRFTISRDTAKNTVYLQINSLNTEDTAVYYCAKDRYLYYRRRGQYDYWGQGTQVTVSS”, “high polyreactivity”; with “QVQLVESGGGLVQAGGSLRLSCADSGRTFYRYAMVWYRQSPGKERELVAAITTSGGSTYYADSVKGRFTISRDNAKNTVYLQMNSLKPEDTAVYYCAATYYGYHIRDDYWGQGTQVTVSS”, “low polyreactivity”.
